Measured values: patent US20240131155A1, “T CELLS FOR USE IN THERAPY” (Erasmus University Medical Center Rotterdam, priority 2021, published 2024)

How the values were obtained:
[1] = target: MLN epitope (…) presented by HLA-A2 on cells (human); assay: cell-based or functional assay
[2] = target: T1, HLA-A2 (HLA-A2:01) on T2 cells (human); assay: HLA-A2 stabilization assay on T2 cells (anti-HLA-A2-PE, flow cytometry), single peptide concentration [panel D]
T1 construct: detected with anti-HLA-A2 mAb BB7.2

[3] = target: T1, HLA-A2 (HLA-A2:01) on T2 cells; assay: HLA-A2 stabilization assay on T2 cells (anti-HLA-A2-PE, flow cytometry), single peptide concentration 25 ug/mL [panel E]
[4] = target: T1, HLA-A2 (HLA-A2:01) on T2 cells; assay: HLA-A2 stabilization assay on T2 cells, peptide titration; amplitude relative to that of reference peptide YLE; EC50 cell is 'x' [panel D]
[5] = target: T1, HLA-A2 (HLA-A2:01) on T2 cells; assay: HLA-A2 stabilization assay on T2 cells (anti-HLA-A2-PE, flow cytometry), single peptide concentration [panel C; D00007 Figure 3 continued, panel E]
[6] = target: T2, ROPN1B epitope 1 (MLN) with alanine at position 9 peptide on HLA-A*02:01 (human); assay: cytokine release
T2 peptide: MLNYIEQEA

[7] = target: T3, gp100 peptide on HLA-A*02:01 (human); assay: cytokine release
T3 peptide: YLEPGPVTA

[8] = target: T4, ROPN1B epitope 1 (MLN) with alanine at position 6 peptide on HLA-A*02:01 (human); assay: cytokine release
T4 peptide: MLNYIAQEV

[9] = target: T5, ROPN1B epitope 1 (MLN) with alanine at position 8 peptide on HLA-A*02:01 (human); assay: cytokine release
T5 peptide: MLNYIEQAV

[10] = target: T6, ROPN1 (counterpart of the ROPN1B MLN epitope, one residue different) peptide on HLA-A*02:01 (human); assay: cytokine release
T6 peptide: MLNYMEQEV

[11] = target: T7, ROPN1B peptide on HLA-A*02:01 (human); assay: multimer staining
T7 peptide: MLNYIEQEV

[12] = target: T1, HLA-A2 (HLA-A2:01) on T2 cells; assay: HLA-A2 stabilization assay on T2 cells, peptide titration; EC50 calculated with GraphPad [panel E]
[13] = target: T1, HLA-A2 (HLA-A2:01) on T2 cells; assay: HLA-A2 stabilization assay on T2 cells, peptide titration; amplitude = highest data point corrected for baseline [panel E]
[14] = target: T1, HLA-A2 (HLA-A2:01) on T2 cells; assay: HLA-A2 stabilization assay on T2 cells, peptide titration; EC50 calculated with GraphPad [panel D]
[15] = target: T1, HLA-A2 (HLA-A2:01) on T2 cells; assay: HLA-A2 stabilization assay on T2 cells, peptide titration; amplitude relative to that of reference peptide YLE [panel D]

B1: MLN-TCR2 (epitope 1 (MLN)-specific TCR) (TCR, V domains shown)
V domain 1: RGEDVEQSLFLSVREGDSSVINCTYTDSSSTYLYWYKQEPGAGLQLLTYIFSNMDMKQDQRLTVLLNKKDKHLSLRIADTQTGDSAIYFCAEDGGGSYIPTFGRGTSLIVHP
V domain 2: EAGVTQFPSHSVIEKGQTVTLRCDPISGHDNLYWYRRVMGKEIKFLLHFVKESKQDESGMPNNRFLAERTGGTYSTLKVQPAELEDSGVYFCASSPGPGQNSPLHFGNGTRLTVTE
EC50 of T cell IFN-gamma production, peptide titration on BSM cells [1]: 0.011 µM

YIAEVDGEI (ROPN1B, predicted)
Minimum stability [2]: 1.41 fold change over baseline
Minimum stability [3]: 1.16 fold change over baseline
Amplitude [4]: 0.939 relative to YLE

RLIIRAEEL (ROPN1 and ROPN1B, predicted)
Minimum stability [2]: 0.91 fold change over baseline
Minimum stability [3]: 0.91 fold change over baseline
binding result [5]: no binding (tested: 25 ug/mL)

B2: MLN-TCR2 (TCR, V domains shown)
Valpha: GEDVEQSLFLSVREGDSSVINCTYTDSSSTYLYWYKQEPGAGLQLLTYIFSNMDMKQDQRLTVLLNKKDKHLSLRIADTQTGDSAIYFCAEDGGGSYIPTFGRGTSLIVHP
Vbeta: EAGVTQFPSHSVIEKGQTVTLRCDPISGHDNLYWYRRVMGKEIKFLLHFVKESKQDESGMPNNRFLAERTGGTYSTLKVQPAELEDSGVYFCASSPGPGQNSPLHFGNGTRLTVT
binding result [6]: recognises
binding result [7]: no recognition
binding result [8]: recognises
binding result [9]: recognises
binding result [10]: no recognition
binding result [11]: recognises

SLLMWITQV (also called NY-ESO peptide SLL) [NY-ESO1 peptide SLLMWITQV]
EC50 [12]: 5.08 µM
Amplitude [13]: 4220 geometric mean normalized to baseline
EC50 [14]: 5.08 µM
Amplitude [15]: 0.93 relative to YLE
